The experiment concerns the target T1, PSCA (prostate stem cell antigen), human, PSCA v.1 (human, UniProt O43653 12-83).
T1 construct: whole, on cells; also called PSCA变体1; 人PSCA
T1 sequence (looked up): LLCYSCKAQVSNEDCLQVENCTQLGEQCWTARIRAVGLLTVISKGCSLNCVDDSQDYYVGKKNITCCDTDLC
The experiment can be described thus: FACS titration on SW780 cells, sigmoidal dose-response fit (Graphpad Prism).

What is called Kd is the free concentration of one partner at which half of the binding sites on the other are occupied at equilibrium, for simple one-to-one binding. Higher therefore signals lower affinity.

B1: Ha1-4.117 (antibody, V domains shown)
VH: QVQLQESGPGLVKPSQTLSLTCTVSGGSISSGGYYWIWIRQHPGKGLEWIGYIYYNGNTYYNPSLKSRVTMSVDTSKNQFSLKLSSVTAADTAVYYCARDGITMIRGYYYGMDVWGQGTTVTVSS
VL: QLTQSPSSVSASVGDRVTITCRASRGISSWLAWYQQKPGKAPKLLIYTASSLQSGVPSRFSGSGSGTDFTLTISSLQPEDFATYYCQQAYSFPRTFGQGTKVEIKR
The molecule B1 registered an equilibrium dissociation constant (Kd) of 0.32 nM.

B2: Ha1-1.16 (antibody, V domains shown)
VH: QVQLQQSGPGLVKPSQTLSLTCAISGDSVSSNSAAWNWIRQSPSRGLEWLGRTYYRSKWYNGYAVSVKSRMTINPDTSKNQFSLQLNSVTPEDTAVYYCARERLGELYGMDVWGQGTTVTVSS
VL: QLTQSPDSLAVSLGERATINCKSSQNILYRSSKKNHLVWYQQKPGQPPKLLIYWASTRESGVPARFSGSGSGTDFTLTISTLQAEDVAVYYCQQYYSTPPTFGQGTRLEIKR
notes: ATCC PTA-6698; also called Ha1-1.16.1
For the molecule B2, the dissociation constant Kd came out at 6.91 nM.

B3: Ha1-5.99 (antibody, IgG2, V domains shown)
VH: QVHLQQWGAGLLKPSETLSLTCAVYGGSFSGYYWSWIRQPPGKGLEWIGEINHSGSTSYKPSLKSRVTVSVDTSKNQFSLKLSYVTAADTAVYYCARDRGDYGDFLFDYWGQGTLVTVSS
VL: SPGERATLSCRASQSIGSTYLAWYQQKPGQAPRLLIYGASSRATGIPERFSGSGSGTDFTLTISGLEPEDFAVFYCQQCGSSPPTFGQGTKVEIKR
notes: ATCC PTA-6703; also called Ha1-5.99.1; HA1-5.99.1
For B3, binding was characterised by a dissociation constant (Kd) of 0.28 nM.

B4: Ha1-4.37 (antibody, V domains shown)
VH: PGALQESGPGLVRPSQTLSLTCTVSGGSISSGGTYYWIWIRQHPGKGLEWIGYIYYSGSTYYNPSLKSRVTISVDTSKNQFSLKLSSVTAADTAVYYCARDGITMVRGISGGMDVWGQGTTVTVSS
VL: ASVGDRVTITCRASQSISSHLNWYQQKPGKAPKLLIYAASSLQSGVPSRFSGSGSGTDFTLSISSLQPEDFATYFCQQSYSIPRTFGQGTKVEITR
notes: ATCC PTA-6702
On to B4, for which the dissociation constant Kd is 0.23 nM.

For the origin of these results see patent CN1997751A (AGENSYS INC, dated 2007).
